According to the supplement of paper PMC11246515:
± gives the standard deviation of the averaged measurements.

Experiment: total protein half-life in vivo (active degradation + dilution); higher = more stable protein
[1] = E. coli NCM3722 delta-clpP, growth: N-lim chemostat, doubling time 6 h
[2] = E. coli NCM3722 delta-hslV, growth: N-lim chemostat, doubling time 6 h
[3] = E. coli NCM3722 delta-lon, growth: N-lim chemostat, doubling time 6 h
[4] = E. coli NCM3722 delta-smpB, growth: N-lim chemostat, doubling time 6 h
[5] = wild type E. coli NCM3722, growth: C-lim chemostat, doubling time 3 h
[6] = wild type E. coli NCM3722, growth: C-lim chemostat, doubling time 6 h
[7] = wild type E. coli NCM3722, growth: C-lim chemostat, doubling time 12 h
[8] = wild type E. coli NCM3722, growth: N-lim chemostat, doubling time 6 h
[9] = wild type E. coli NCM3722, growth: N-lim chemostat, doubling time 12 h
[10] = wild type E. coli NCM3722, growth: P-lim chemostat, doubling time 6 h
[11] = wild type E. coli NCM3722, growth: P-lim chemostat, doubling time 12 h
[12] = E. coli NCM3722 delta-clpP delta-lon delta-hslV, growth: N-lim chemostat, doubling time 6 h

Sequence: MQSERIYLVWAHPRHDSLTAHIADAIHQRAMERKIQVTELDLYRRNFNPVMTPEDEPDWKNMDKRYSPEVHQLYSELLEHDTLVVVFPLWWYSFPAMLKGYIDRVWNNGLAYGDGHKLPFNKVRWVALVGGDKESFVQMGWEKNISDYLKNMCSYLGIEDADVTFLCNTVVFDGEELHASYYQSLLSQVRDMVDAL
- total protein half-life in vivo [1]: 4.52 ± 0.47 h
- total protein half-life in vivo [2]: 4 h
- total protein half-life in vivo [3]: 4.84 ± 0.22 h
- total protein half-life in vivo [4]: 4.07 ± 0.28 h
- total protein half-life in vivo [5]: 2.98 ± 0.16 h
- total protein half-life in vivo [6]: 6.87 ± 1.5 h
- total protein half-life in vivo [7]: 9.75 ± 0.92 h
- total protein half-life in vivo [8]: 4.62 ± 0.12 h
- total protein half-life in vivo [9]: 7.48 ± 1 h
- total protein half-life in vivo [10]: 5.643 ± 0.052 h
- total protein half-life in vivo [11]: 11.5 ± 1.1 h

Sequence: MQSWYLLYCKRGQLQRAQEHLERQAVNCLAPMITLEKIVRGKRTAVSEPLFPNYLFVEFDPEVIHTTTINATRGVSHFVRFGASPAIVPSAVIHQLSVYKPKDIVDPATPYPGDKVIITEGAFEGFQAIFTEPDGEARSMLLLNLINKEIKHSVKNTEFRKL [P0AFW0]
- total protein half-life in vivo [12]: 4.25 ± 0.76 h
- total protein half-life in vivo [1]: 3.41 ± 0.17 h
- total protein half-life in vivo [2]: 3.23 h
- total protein half-life in vivo [3]: 3.931 ± 0.015 h
- total protein half-life in vivo [4]: 2.52 ± 0.22 h
- total protein half-life in vivo [5]: 3.08 ± 0.73 h
- total protein half-life in vivo [6]: 5.24 ± 1.7 h
- total protein half-life in vivo [7]: 6.64 ± 1.1 h
- total protein half-life in vivo [8]: 3.18 h
- total protein half-life in vivo [9]: 5.43 ± 1.4 h
- total protein half-life in vivo [10]: 4.35 ± 0.79 h
- total protein half-life in vivo [11]: 7.71 h

Sequence: MQTEHVILLNAQGVPTGTLEKYAAHTADTRLHLAFSSWLFNAKGQLLVTRRALSKKAWPGVWTNSVCGHPQLGESNEDAVIRRCRYELGVEITPPESIYPDFRYRATDPSGIVENEVCPVFAARTTSALQINDDEVMDYQWCDLADVLHGIDATPWAFSPWMVMQATNREARKRLSAFTQLK
- total protein half-life in vivo [12]: 4.63 ± 0.67 h
- total protein half-life in vivo [1]: 4.86 ± 0.81 h
- total protein half-life in vivo [2]: 4.79 ± 0.39 h
- total protein half-life in vivo [3]: 4.68 ± 0.56 h
- total protein half-life in vivo [4]: 4.42 ± 0.16 h
- total protein half-life in vivo [5]: 3.09 ± 0.08 h
- total protein half-life in vivo [6]: 6.016 ± 0.044 h
- total protein half-life in vivo [7]: 8.96 ± 0.18 h
- total protein half-life in vivo [8]: 4.39 h
- total protein half-life in vivo [9]: 7.89 h
- total protein half-life in vivo [10]: 5.61 h
- total protein half-life in vivo [11]: 13.1 ± 1.7 h

Sequence: MQVKTQSCVVAGKKTVAVTEQTIDWNNNGTLVQITRGGICGSDLHYYQEGKVGNFMIKAPMVLGHEVIGKVIHSDSSELHEGQTVAINPSKPCGHCKYCIEHNENQCTDMRFFGSAMYFPHVDGGFTRYKMVETSQCVPYPAKADEKVMAFAEPLAVAIHAAHQAGELQGKRVFISGVGPIGCLIVSAVKTLGAAEIVCADVSPRSLSLGKEMGADVLVNPQNDDMDHWKAEKGYFDVSFEVSGHPSSVNTCLEVTRARGVMVQVGMGGAMAEFPMMTLIGKEISLRGSFRFTSEFNTAVSWLANGVINPLPLLSAEYPFTDLEEALRFAGDKTQAAKVQLVF
- total protein half-life in vivo [5]: 1.348 ± 0.0073 h
- total protein half-life in vivo [6]: 2.71 h
- total protein half-life in vivo [7]: 5.81 h

Sequence: MQVSRRQFFKICAGGMAGTTAAALGFAPSVALAETRQYKLLRTRETRNTCTYCSVGCGLLMYSLGDGAKNAKASIFHIEGDPDHPVNRGALCPKGAGLVDFIHSESRLKFPEYRAPGSDKWQQISWEEAFDRIAKLMKEDRDANYIAQNAEGVTVNRWLSTGMLCASASSNETGYLTQKFSRALGMLAVDNQARVUHGPTVASLAPTFGRGAMTNHWVDIKNANLVVVMGGNAAEAHPVGFRWAMEAKIHNGAKLIVIDPRFTRTAAVADYYAPIRSGTDIAFLSGVLLYLLNNEKFNREYTEAYTNASLIVREDYGFEDGLFTGYDAEKRKYDKSSWTYELDENGFAKRDTTLQHPRCVWNLLKQHVSRYTPDVVENICGTPKDAFLKVCEYIAETSAHDKTASFLYALGWTQHSVGAQNIRTMAMIQLLLGNMGMAGGGVNALRGHSNIQGLTDLGLLSQSLPGYMTLPSEKQTDLQTYLTANTPKPLLEGQVNYWGNYPKFFVSMMKAFFGDKATAENSWGFDWLPKWDKGYDVLQYFEMMKEGKVNGYICQGFNPVASFPNKNKVIGCLSKLKFLVTIDPLNTETSNFWQNHGELNEVDSSKIQTEVFRLPSTCFAEENGSIVNSGRWLQWHWKGADAPGIALTDGEILSGIFLRLRKMYAEQGGANPDQVLNMTWNYAIPHEPSSEEVAMESNGKALADITDPATGAVIVKKGQQLSSFAQLRDDGTTSCGCWIFAGSWTPEGNQMARRDNADPSGLGNTLGWAWAWPLNRRILYNRASADPQGNPWDPKRQLLKWDGTKWTGWDIPDYSAAPPGSGVGPFIMQQEGMGRLFALDKMAEGPFPEHYEPFETPLGTNPLHPNVISNPAARIFKDDAEALGKADKFPYVGTTYRLTEHFHYWTKHALLNAILQPEQFVEIGESLANKLGIAQGDTVKVSSNRGYIKAKAVVTKRIRTLKANGKDIDTIGIPIHWGYEGVAKKGFIANTLTPFVGDANTQTPEFKSFLVNVEKV
- total protein half-life in vivo [12]: 5.155 ± 0.0061 h
- total protein half-life in vivo [1]: 4.77 ± 0.55 h
- total protein half-life in vivo [2]: 6.6 h
- total protein half-life in vivo [3]: 5.502 ± 0.033 h
- total protein half-life in vivo [4]: 4.72 h
- total protein half-life in vivo [5]: > 4 h
- total protein half-life in vivo [6]: 5.8 h
- total protein half-life in vivo [7]: 11.4 ± 0.86 h
- total protein half-life in vivo [8]: 5.89 h
- total protein half-life in vivo [9]: 10.4 ± 0.35 h
- total protein half-life in vivo [10]: 4.79 ± 0.5 h
- total protein half-life in vivo [11]: 8.459 ± 0.046 h

Sequence: MQVSVETTQGLGRRVTITIAADSIETAVKSELVNVAKKVRIDGFRKGKVPMNIVAQRYGASVRQDVLGDLMSRNFIDAIIKEKINPAGAPTYVPGEYKLGEDFTYSVEFEVYPEVELQGLEAIEVEKPIVEVTDADVDGMLDTLRKQQATWKEKDGAVEAEDRVTIDFTGSVDGEEFEGGKASDFVLAMGQGRMIPGFEDGIKGHKAGEEFTIDVTFPEEYHAENLKGKAAKFAINLKKVEERELPELTAEFIKRFGVEDGSVEGLRAEVRKNMERELKSAIRNRVKSQAIEGLVKANDIDVPAALIDSEIDVLRRQAAQRFGGNEKQALELPRELFEEQAKRRVVVGLLLGEVIRTNELKADEERVKGLIEEMASAYEDPKEVIEFYSKNKELMDNMRNVALEEQAVEAVLAKAKVTEKETTFNELMNQQA [P0A850]
- total protein half-life in vivo [12]: 6.11 ± 0.15 h
- total protein half-life in vivo [1]: 5.78 ± 0.82 h
- total protein half-life in vivo [2]: 5.67 ± 0.022 h
- total protein half-life in vivo [3]: 6 ± 0.012 h
- total protein half-life in vivo [4]: 4.96 ± 0.061 h
- total protein half-life in vivo [5]: 3.12 ± 0.18 h
- total protein half-life in vivo [6]: 5.738 ± 0.013 h
- total protein half-life in vivo [7]: 10.4 ± 0.89 h
- total protein half-life in vivo [8]: 5.35 ± 0.36 h
- total protein half-life in vivo [9]: 9.03 ± 0.57 h
- total protein half-life in vivo [10]: 5.01 ± 0.23 h
- total protein half-life in vivo [11]: 9.5 ± 0.3 h

Sequence: MQWQTKLPLIAILRGITPDEALAHVGAVIDAGFDAVEIPLNSPQWEQSIPAIVDAYGDKALIGAGTVLKPEQVDALARMGCQLIVTPNIHSEVIRRAVGYGMTVCPGCATATEAFTALEAGAQALKIFPSSAFGPQYIKALKAVLPSDIAVFAVGGVTPENLAQWIDAGCAGAGLGSDLYRAGQSVERTAQQAAAFVKAYREAVQ [Q6BF16]
- total protein half-life in vivo [12]: 4.76 h
- total protein half-life in vivo [5]: 2.04 h
- total protein half-life in vivo [6]: 3.84 h
- total protein half-life in vivo [7]: 8.18 h
